Measured values taken from the supplement of paper PMC5998384.

Key:
HeLa Kyoto [1] = experiment: solubility change mitosis vs G1/S (difference of NP-40 vs SDS log2 ratios) (log2 ratio difference); higher = more soluble in mitosis
HeLa Kyoto [2] = experiment: melting temperature (median over replicates), in situ; higher = more thermally stable
HeLa Kyoto [3] = experiment: solubility in G1/S (NP-40 vs SDS abundance) (log2 ratio); higher = more soluble; conditions: cell cycle stage: G1/S
HeLa Kyoto [4] = experiment: thermal stability score vs G1/S (z-score of summed log2 fold changes over temperatures); higher = more thermally stable than in G1/S
[5] = cell cycle stage: early G1 (4.5 h after nocodazole release)
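Throughout, for melting temperature (median over replicates), in situ: HeLa Kyoto cells synchronized by double thymidine or nocodazole block, proteins quantified by TMT10plex mass spectrometry, three independent biological replicates.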
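Throughout, for solubility change mitosis vs G1/S (difference of NP-40 vs SDS log2 ratios): synchronized HeLa Kyoto cells (double thymidine block for G1/S, nocodazole release for mitosis), protein amounts in NP-40 versus SDS lysates quantified by mass spectrometry, three biological replicates.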
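Throughout, for solubility in G1/S (NP-40 vs SDS abundance): HeLa Kyoto cells arrested at G1/S by double thymidine block, proteins quantified by TMT10plex mass spectrometry in mild NP-40 versus SDS extracts, three biological replicates.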
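Throughout, for thermal stability score vs G1/S (z-score of summed log2 fold changes over temperatures): synchronized HeLa Kyoto cells, proteins quantified by TMT10plex mass spectrometry, three biological replicates, mitosis taken 0.5 h after nocodazole release, G1/S directly after double thymidine block.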

Substance | solubility change mitosis (log2) (HeLa Kyoto [1]) | melting temperature (HeLa Kyoto [2]; cell cycle stage: G1/S) | melting temperature (HeLa Kyoto [2]; cell cycle stage: mitosis) | solubility in G1/S (log2) (HeLa Kyoto [3]) | thermal stability score (HeLa Kyoto [4]; [5]) | thermal stability score (HeLa Kyoto [4]; cell cycle stage: mitosis)
MAPSGLKAVVGEKILSGVIRSVKKDGEWKVLIMDHPSMRILSSCCKMSDILAEGITIVEDINKRREPIPSLEAIYLLSPTEKSVQALIKDFQGTPTFTYKAAHIFFTDTCPEPLFSELGRSRLAKVVKTLKEIHLAFLPYEAQVFSLDAPHSTYNLYCPFRAEERTRQLEVLAQQIATLCATLQEYPAIRYRKGPEDTAQLAHAVLAKLNAFKADTPSLGEGPEKTRSQLLIMDRAADPVSPLLHELTFQAMAYDLLDIEQDTYRYETTGLSEAREKAVLLDEDDDLWVELRHMHIADVSKKVTELLRTFCESKRLTTDKANIKDLSQILKKMPQYQKELNKYSTHLHLADDCMKHFKGSVEKLCSVEQDLAMGSDAEGEKIKDSMKLIVPVLLDAAVPAYDKIRVLLLYILLRNGVSEENLAKLIQHANVQAHSSLIRNLEQLGGTVTNPGGSGTSSRLEPRERMEPTYQLSRWTPVIKDVMEDAVEDRLDRNLWPFVSDPAPTASSQAAVSARFGHWHKNKAGIEARAGPRLIVYVMGGVAMSEMRAAYEVTRATEGKWEVLIGSSHILTPTRFLDDLKALDKKLEDIALP [STXBP2] | -0.19 | 49.3 °C | 49.2 °C | -0.0683 | 0.25 | 1.22
MSLQWTAVATFLYAEVFVVLLLCIPFISPKRWQKIFKSRLVELLVSYGNTFFVVLIVILVLLVIDAVREIRKYDDVTEKVNLQNNPGAMEHFHMKLFRAQRNLYIAGFSLLLSFLLRRLVTLISQQATLLASNEAFKKQAESASEAAKKYMEENDQLKKGAAVDGGKLDVGNAEVKLEEENRSLKADLQKLKDELASTKQKLEKAENQVLAMRKQSEGLTKEYDRLLEEHAKLQAAVDGPMDKKEE [BCAP31] | -0.101 | 55.5 °C | 55.5 °C | 0.132 | -4.24 | -4.65
CXORF56 | 0.1 | 50.6 °C | 51.3 °C | -0.0564 | -1.87 | -1.28
MSTPAVPQDLQLPPSQRAQSAFKEQRRQKLKEHLLRRKTLFAYKQENEMLSSSRDQRVVTSEDQVQEGTKVLKLKTKMADKENMKRPAESKNNTVVGKHCIPLKPSNELTNSTVVIDTHKPKDSNQTPHLLLTEDDPQSQHMTLSQAFHLKNNSKKKQMTTEKQKQDANMPKKPVLGSYRGQIVQSKINSFRKPLQVKDESSAATKKLSATIPKATKPQPVNTSSVTVKSNRSSNMTATTKFVSTTSQNTQLVRPPIRSHHSNTRDTVKQGISRTSANVTIRKGPHEKELLQSKTALSSVKTSSSQGIIRNKTLSRSIASEVIARPASLSNDKLMEKSEPVDQRRHTAGKAIVDSRSAQPKETSEERKARLSEWKAGKGRVLKRPPNSVVTQHEPAGQNEKPVGSFWTTMAEEDEQRLFTEKVNNTFSECLNLINEGCPKEDILVTLNDLIKNIPDAKKLVKYWICLALIEPITSPIENIIAIYEKAILAGAQPIEEMRHTIVDILTMKSQEKANLGENMEKSCASKEEVKEVSIEDTGVDVDPEKLEMESKLHRNLLFQDCEKEQDNKTKDPTHDVKTPNTETRTSCLIKYNVSTTPYLQSVKKKVQFDGTNSAFKELKFLTPVRRSRRLQEKTSKLPDMLKDHYPCVSSLEQLTELGRETDAFVCRPNAALCRVYYEADTT [CKAP2] | 0.657 | 51 °C | 49.3 °C | -0.733 | -1.31 | -0.259
MDETSPLVSPERAQPPDYTFPSGSGAHFPQVPGGAVRVAAAAGSGPSPPGSPGHDRERQPLLDRARGAAAQGQTQTVAAQAQALAAQAAAAAHAAQAHRERNEFPEDPEFEAVVRQAELAIERCIFPERIYQGSSGSYFVKDPQGRIIAVFKPKNEEPYGHLNPKWTKWLQKLCCPCCFGRDCLVLNQGYLSEAGASLVDQKLELNIVPRTKVVYLASETFNYSAIDRVKSRGKRLALEKVPKVGQRFNRIGLPPKVGSFQLFVEGYKDADYWLRRFEAEPLPENTNRQLLLQFERLVVLDYIIRNTDRGNDNWLIKYDCPMDSSSSRDTDWVVVKEPVIKVAAIDNGLAFPLKHPDSWRAYPFYWAWLPQAKVPFSQEIKDLILPKISDPNFVKDLEEDLYELFKKDPGFDRGQFHKQIAVMRGQILNLTQALKDNKSPLHLVQMPPVIVETARSHQRSSSESYTQSFQSRKPFFSWW [PI4K2A] | -0.137 | 53.9 °C | 53.6 °C | 0.202 | 1.81 | -1.09
